Patent US11634477 (dated 2023)

Legend:
SARS-CoV RBD = SARS-CoV RBD (SARS-CoV, UniProt P59594); test: ELISA
SARS-CoV-2 RBD = SARS-CoV-2 RBD (SARS-CoV-2, UniProt P0DTC2); test: ELISA

Binder | EC50 (SARS-CoV RBD) [ng/mL] | EC50 (SARS-CoV-2 RBD) [ng/mL]
C118 (antibody, V domains shown) VH: QVQLVESGGGVVQPGRSLRLSCAASGFTFSNYAMHWVRQAPGKGLEWVAVISYDGSNKYYADSVKGRFTISRDNSKNTLYLQMNSLRAEDTAIYYCASGYTGYDYFVRGDYYGLDVWGQGTTVTVSS VL: QPVLTQSPSASASLGASVKLTCTLSSGHSSYAIAWHQQQPEKGPRYLMKLNTDGSHSKGDGIPDRFSGSSSGAERYLTISSLQSEDEADYYCQTWGTGILVFGGGTKLTVL | 3.82 | 3.45
C134 (antibody, V domains shown) VH: EVQLLESGGGLVQPGGSLRLSCAASGFTFSNYAMSWVRQAPGKGLEWVSAISGSDGSTYYAGSVKGRFTISRDNSKNTLYLQMNSLRAEDTAVYYCAKDPLITGPTYQYFHYWGQGTLVTVSS VL: SYELTQPPSVSVAPGKTARITCGGNNIGSKSVHWYQQKPGQAPVLVIYYDSDRPSGIPERFSGSNSGNTATLTISRVEAGDEAEYHCQVWDSSSDRPGVVFGGGTKLTVL | > 1000 | 1.57
C128 (antibody, V domains shown) VH: EVQLLESGGGLVQPGGSLRLSCAASGFTFSTYAMSWVRQAPGKGLEWVSTITGSGRDTYYADSVKGRFTISRDNSKNTLFLQLNSLRAEDAAVYSCANHPLASGDDYYHYYMDVWGKGTTVTVSS VL: EIVLTQSPGTLSLSPGERATLSCRASQSVNSRQLAWYQQKPGQAPRLLIYGASSRATGIPERFSGSGSGTDFTLTISRLESEDFAVYHCQQYGSSRALTFGGGTKVEIK | > 1000 | 1.95
C214 (antibody, V domains shown) VH: QVQLVESGGGVVQPGRSLRLSCAASGFTFSSYGMHWVRQAPGKGLEWVAAIWYDGSNKHYADSVKGRFTISRDNSKNTLYLQMNSLRAEDTAVYYCARDVGRVTTWFDPWGQGTLVTVSS VL: not shown | > 1000 | 5.75
C139 (antibody, V domains shown) VH: EVQLVESGGGVVQPGRSLRLSCAASGFTFSSYAMHWVRQAPGKGLEWVAVISYDGSNKYSADSVKGRFTISRDNSKNTLYLQMNSLRAEDTAVYYCAKGGAYSYYYYMDVWGKGTTVTVSS VL: not shown | > 1000 | 1.89
C114 (antibody, V domains shown) VH: QVQLVESGGGLIQPGGSLKLSCVVSGFTVSKNYISWVRQAPGKGLEWVSVIFAGGSTFYADSVKGRFAISRDNSNNTLFLQMNSLRVEDTAIYYCARGDGELFFDQWGQGTLVTVSS VL: QSVLTQPPSVSGAPGQRVTISCTGTSSNIGAGYDVHWYQQLPGRAPKVLISGNNIRPSEVPDRFSGSRSGTSASLAITSLQPEDEAQYYCQSYDSSLYAVFGGGTKLTVL | > 1000 | 9.51
C120 (antibody, V domains shown) VH: EVQLVESGGGLIQPGGSLRLSCAASGFTVSSNYMTWVRQAPGKGLEWVSLIYPGGSTYYADSVKGRFTISRDNSKNTLYLQMNSLRAEDTAVYYCAREGMGMAAAGTWGQGTLVTVSS VL: AIRMTQSPSSLSASVGDTVTITCQASQDISKYLNWYQQKPGKAPKLLIYDASNLETGVPSRFSGSGSGTDFTFTISSLQPEDIATYYCQQYDNLPQTFGGGTKVEIK | > 1000 | 1.41
C204 (antibody, V domains shown) VH: EVQLLESGGGLEQPGGSLRLSCAASGFTFSTYAMSWVRQAPGKGLEWVSAISGSGAGTFYADSVKGRFTISRDNSKNTLYLQMNSLRAEDTAVYYCARESDCGSTSCYQVGWFDPWGQGTLVTVSS VL: not shown | 9.41 | 3.73
C148 (antibody, V domains shown) VH: EVQLVESGGGLVQPGGSQRLSCAASGFTVSSNYMSWIRQAPGKGLEWVSVIYSGGSAYYVDSVKGRFTISRDNSKNTLYLQMNSLRPEDTAVYYCARIANYMDVWGKGTTVTVSS VL: EIVMTQSPATLSVSPGERATLSCRASQSVSSHLAWYQQKPGQAPRLLIYGASTRATGIPTRFSGSGSGTEFTLTISSLQSEDFAVYYCQQYNNWPPLTFGGGTKVEIK | > 1000 | 64.7
C017 (antibody, V domains shown) VH: EVQLVESGGGLVQPGRSLRLSCAASGFTFDDYAMHWVRQAPGKGLEWVSGISWNSGTIGYADSVKGRFTISRDNAKNSLYLQMNSLRAEDTAFYYCAKAGVRGIAAAGPDLNFDHWGQGTLVTVSS VL: EIVLTQSPATLSLSPGERATLSCRASQSVSSYLAWYQQKPGQAPRLLIYDASNRATGIPARFSGSGSGTDFTLTISSLEPEDFAVYYCQQRITFGQGTRLEIK | > 1000 | 1.63
C155 (antibody, V domains shown) VH: EVQLVESGGGLIQPGGSLRLSCAASGFIVSSNYMSWVRQAPGKGLEWVSVIYSGGSTFYADSVKGRFTISRDNSKNTLYLQMNSLRAEDTAVYYCARDFGEFYFDYWGQGTLVTVSS VL: EIVMTQSPATLSVSPGERATLSCRASQSVSSNLAWYQQKPGQAPRLLIYGASTRATAIPARFSGSGSGTEFTLTISSLQSEDFAVYYCQQYNNWPRTFGQGTKVEIK | > 1000 | 3.3
C151 (antibody, V domains shown) VH: EVQLVESGGGLVKPGGSLRLSCAASGFTFSSYNMNWVRQAPGKGLEWVSCISSSSSYIYYADSVKGRFTISRDNAKNSLYLQMNSLRAEDTAVYYCARERGYDGGKTPPFLGGQGTLVTVSS VL: NFMLTQPHSVSESPGKTVTISCTGSSGSIASNYVQWYQQRPGSAPTTVIYEDNQRPSGVPDRFSGSIDSSSNSASLTISGLKTEDEADYYCQSYDSSNYWVFGGGTKLTVL | > 1000 | 4.3
C004 (antibody, V domains shown) VH: not shown VL: AIRMTQSPSSLSASVGDRVTITCQASQDISNYLNWYQQKPGKAPKLLIYDASNLETGVPSRFSGSGSGTDFTFTISSLQPEDIATYYCQQYDNLPITFGQGTRLEIK | > 1000 | 2.39
C016 (antibody, V domains shown) VH: EVQLVESGGGVVQPGRSLRLSCAASGFTFSRYGMHWVRQAPGKGLEWVAVISYDGSNKYYADSVKGRFTISRDNSKNTLYLQMNSLRAEDTAVYYCAKVTAPYCSGGSCYGGNFDYWGQGTLVTVSS VL: not shown | > 1000 | 7.41
C208 (antibody, V domains shown) VH: EVQLVQSGAEVKKPGESLKISCKGSGYSFTSYWIGWVRQMPGKGLEWMGIIYPGDSDTRYSPSFQGQVTISADKSISTAYLKWSSLKASDSAMYYCARGPNLQNWFDPWGQGTLVTVSS VL: EIVLTQSPGTLSLSPGERATLSCRASQSVSGSYLAWYQQRPGQAPRLLIYGASSRATGIPDRFSGSGSGTDFTLTISRLEPEDFAVYYCQQYGSSLTFGGGTKVEIK | > 1000 | > 1000
C013 (antibody, V domains shown) VH: QVQLVQSGAEVKKPGSSVKVSCKASGGTFSSYAISWVRQAPGQGLEWMGGIIPIFGTANYAQKFQGRVTITADESTSTAYMELSSLRSEDTAVYYCARGNRLLYCSSTSCYLDAVRQGYYYYYYMDVWGKGTTVTVSS VL: EIVLTQSPATLSLSPGERATLSCRASQSVSSYLAWYQQKPGQAPRLLIYDASNRATGIPARFSGSGSGTDFTLTISSLEPEDFAVYYCQQRSNWPLTFGGGTKVEIK | > 1000 | 2.59
C140 (antibody, V domains shown) VH: EVQLVESGGGLVQPGGSLRLSCAASGVTVSSNYMSWVRQAPGKGLEWVSLIYSGGSTFYADSVKGRFTISRDNSENTLYLQMNTLRAEDTAVYYCARDLYYYGMDVWGQGTTVTVSS VL: DIQLTQSPSFLSASVGDRVTITCRASQGISSYLAWYQQKPGKAPKLLIYAASTLQSGVPSRFSGSGSGTEFTLTISSLQPEDFATYYCQQLNSYSYTFGQGTKLEIK | > 1000 | 2.19
C202 (antibody, V domains shown) VH: EVQLVESGGGLVQPGGSLRLSCAASGFTVSSNYMSWVRQAPGKGLEWVSLIYSGGSTYYADSVKGRFTISRDNSKNTLYLQMNSLRAEDTAVYYCARDTLGRGGDYWGQGTLVTVSS VL: DIQLTQSPSSLSASVGDRVTITCQASQDISNYLNWYQQKPGKAPKLLIYDASNLETGVPSRFSGSGSGTDFTFTISSLQPEDIATYYCQQYDNLPRSFGQGTKLEIK | > 1000 | 3.4
C018 (antibody, V domains shown) VH: not shown VL: DIQLTQSPSSLSASVGDRVTITCRASQSIRSYLNWYQQKPGKAPKLLIYAASSLQSGVPSRFSGSGSGTDFTLTISSLQPDDFATYYCQQSYSTPPATFGQGTKLEIK | > 1000 | 1.53
C143 (antibody, V domains shown) VH: EVQLVESGGGLVQPGGSLRLSCAASGFSVSTKYMTWVRQAPGKGLEWVSVLYSGGSDYYADSVKGRFTISRDNSKNALYLQMNSLRVEDTGVYYCARDSSEVRDHPGHPGRSVGAFDIWGQGTMVTVSS VL: QSALTQPASVSGSPGQSITISCTGTSNDVGSYTLVSWYQQYPGKAPKLLIFEGTKRSSGISNRFSGSKSGNTASLTISGLQGEDEADYYCCSYAGASTFVFGGGTKLTVL | > 1000 | 3.66
C031 (antibody, V domains shown) VH: EVQLVESGGGLVQPGGSLRLSCAASGFTFSSYDMHWVRQATGKGLEWVSAIGTAGDTYYPGSVKGRFTISRENAKNSLYLQMNSLRAGDTAVYYCARVGYDSSGYSGWYFDLWGRGTLVTVSS VL: not shown | > 1000 | 22.7
C110 (antibody, V domains shown) VH: QVQLQQSGAEVKKPGESLKISCKGSGYSFTSYWIGWVRQMPGKGLEWMGIIYPGDSDTRYSPSFQGQVTISADKSISTAYMQWSSLKASDTAMYYCARSFRDDPRIAVAGPADAFDIWGQGTMVTVSS VL: DIQMTQSPSTLSASVGDRVTITCRASQSISYWLAWYQQKPGKAPKLLIYQASSLESGVPSRFSGSESGTEFTLTISSLQPDDFATYYCQQYNSYPYTFGQGTKLEIK | > 1000 | 7.29
C210 (antibody, V domains shown) VH: EVQLVESGGGLIQPGGSLRLSCAASGFTVSSNYMSWVRQAPGKGLEWVSVIYSGGSTFYADSVKGRFTFSRDNSKNTLYLQMNSLRAEDTAVYYCARDLMAYGMDVWGQGTTVTVSS VL: DIQLTQSPSFLSASVGDRVTITCRASQGISSYLAWYQQKPGKAPKLLIYAASTLQSGVPSRFSGSGSGTEFTLTISSLQPEDFATYYCQQLNSYPQGTFGGGTKVEIK | > 1000 | 2.83
